Measurements reported in patent US20260234655A1, “Nuclear Targeted DNA Delivery and Compositions for Use in Practicing the Same” (Seawolf Therapeutics, Inc., priority 2022, published 2026).
Entries after “also recorded” stand apart in the source; their conditions may differ.

How the values were obtained:
[1] = test system: growth-arrested HepG2 cells; assay: Arrayed DTS screen in growth-arrested HepG2 cells; GFP intensity by live-cell imaging; format: cell-based; conditions: 24 h post-transfection
From the text: DNA construct design. Each DTS was constructed in pentameric repeat using a 15 bp spacer between each TFBS. The DTS was appended just 5′ to the promoter, effectively in a putative enhancer region. Various promoters were employed in these constructs, including CBh (a variant of the CAG promoter) and TTR. Several reporter genes were employed in these constructs, including enhanced Green Fluorescent Protein (eGFP). The polyadenylation (polyA) signal is a BGH-PolyA sequence. For pooled screening, unique molecular identifiers (UMIs; also known as barcodes) were used to distinguish between DNA constructs in a pool, and the UMIs were appended to the 3′UTR immediately downstream of the stop codon of eGFP, just preceding the BGH-PolyA sequence.
Cell culture. HepG2 cells were plated into a 384-well plate and grown for 48 hours to achieve confluency. Cell media was removed and replaced with culture media supplemented with Aphidicolin (1 uM) using EL406 automated plate washer and dispenser, then cells were transfected with DTS containing 17.5 ng plasmids using Lipofectamine 3000 without supplement. Expression of GFP was monitored using a Biotek Cytation 5 cell imaging reader over 24 hours to evaluate DTS activity. Total GFP per well was calculated and averaged over 4 well replicates.
pDNAs containing various DTSs (Table 12) were transfected individually into growth-arrested HepG2 cells. Cell growth was inhibited to prevent dissolution of the nuclear envelope. GFP expression was quantified over a period of 24 h post-transfection by measuring GFP intensity using quantitative live-cell imaging. Statistical analysis and hierarchical clustering methods were used to easily differentiate strong DTSs from weak DTSs in a heatmap (FIG. 5A). […] DTS.203: CREB1, PPARA, ONECUT1, HNF4A, PPARA. DTS.233: HNF1A, NR113, PPARA, HNF1A, PPARA. DTS.276: FOXA1, HNF4A, HNF1A, HNF4A, HNF1A.
For the arrayed screen, pDNAs containing various DTSs were transfected individually into growth-arrested HepG2 cells. For the pooled screen, pDNAs containing various DTSs were pooled together and transfected as a pool into growth-arrested HepG2 cells. Cell growth was inhibited to prevent dissolution of the nuclear envelope, which improves the accuracy of measuring DTS activity related to nuclear translocation. For the arrayed screen, GFP protein expression was quantified 24 h post-transfection by measuring GFP intensity using quantitative live-cell imaging. For the pooled screen, mRNA abundance for each DTS variant was determined using RNA-seq by deconvoluting the read counts for each UMI. A strong correlation between protein expression in the arrayed screen and mRNA expression in the pooled screen was observed (FIG. 6). […] Pooled screening can thus be used to quickly and reliably identify strong DTSs.

[2] = test system: growth-arrested HepG2 cells; assay: Pooled DTS screen in growth-arrested HepG2 cells; mRNA abundance by RNA-seq of UMIs; format: cell-based
From the text: Library cloning. Pooled DTS libraries were designed as described above. To ensure the highest quality library production of oligos for cloning, oligo lengths were standardized to 300 bp. To accommodate this standardized length the core sequence of each DTS was embedded center-justified in a neutral fragment of random DNA sequence. The flanks of each oligo contained unique golden gate restriction enzyme digestion sites (Bsal) for cloning of double stranded DNA into screening vectors. […] The proper UMI/DTS barcode correlation (termed here the “library registry”) was determined via excision of the hTTR/eGFP fragments, re-ligation of the vector, PCR amplification of the corresponding proximal DTS and UMI regions, and sequencing on an Illumina Miseq (2×150 bp reads). […]
Quantification of mRNA abundance from pooled DTS screens. […] The PCR amplified cDNA was then library prepped (NEBNext library prep for Illumina) and sequenced on an Illumina Miseq (2×150 bp reads). Counts for each UMI were translated into the corresponding DTS using the UMI/Barcode registry and changes in abundance of each DTS were statistically analyzed using a custom R script. The log 2 fold change is calculated by comparing the RNA level in the pool vs. its expected abundance, which is derived from the abundance in the corresponding input DNA pool. […]

B1: DTS.203: combinatorial DTS: CREB1, PPARA, ONECUT1, HNF4A, PPARA binding sites (nucleic acid)
DNA: CTGACGTCAGAGATTACTACTGATACAAAACTAGGTCAAAGGTCAAGATTACTACTGATAGTCTGCTAAGTCAATAATCAGAATAGATTACTACTGATACGCCCCAGCACACATGATCAGAAGATTACTACTGATAAGGTCAAAGGTCA
[1]
  GFP intensity / gene expression in arrayed screen compared to Spacer negative control: performed equivalently or better than NFKB

B2: DTS.233: combinatorial DTS: HNF1A, NR1I3, PPARA, HNF1A, PPARA binding sites (nucleic acid)
DNA: GGTTAATAATTAACAGATTACTACTGATACCTCTTCTCTGTGGGTGACCAGCGTCCTAAGATTACTACTGATAAACTAGGTCAAAGGTCAAGATTACTACTGATAAGTATGGTTAATGATCTACAGAGATTACTACTGATACAAAACTAGGTCAAAGGTCA
[1]
  GFP intensity / gene expression in arrayed screen compared to Spacer negative control: performed equivalently or better than NFKB; also recorded: robust increases
[2]
  mRNA abundance in pooled screen relative to Spacer negative control: robust increases

B3: DTS.276: combinatorial DTS: FOXA1, HNF4A, HNF1A, HNF4A, HNF1A binding sites (nucleic acid)
DNA: TGTTTACTTTAGATTACTACTGATATCGAGCGCAGGTCAAAGGTCACCTGCAGATTACTACTGATAGGTTAATAATTAACAGATTACTACTGATATCGAGCGCTGGGCAAAGGTCACCTGCAGATTACTACTGATAAGTATGGTTAATGATCTACAG
[1]
  GFP intensity / gene expression in arrayed screen compared to Spacer negative control: performed equivalently or better than NFKB
